Data taken from the supplement of paper PMC10567573.
± gives the standard deviation.

Assay: protein stability index of a GFP-peptide fusion (GPS, HEK-293T) (PSI 1-6); higher = more stable
[1] = treatment: DMSO, c terminus: a fixed tail appended
[2] = treatment: MLN4924 1 uM, 8 h, c terminus: a fixed tail appended
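Also: 24-mer peptide tiles fused after GFP, lentivirally expressed, FACS-sorted into six equal bins by GFP/DsRed ratio, decoded by Illumina sequencing, PSI is the read-weighted mean bin number.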

Sequence | protein stability index [1] | protein stability index [2] | protein stability index (treatment: DMSO, c terminus: native) | protein stability index (treatment: MLN4924 1 uM, 8 h, c terminus: native)
QEKDQEMERLRELQRASILDMRRD [FBF1] | 4.86 ± 0.22 | 4.79 ± 0.24 |  | 
SLSAGEKPGFLAPRDLPKHTPLIS [RASAL3] | 3.56 ± 0.23 | 3.65 ± 0.32 |  | 
SVTKEGLELPEDEEEKKKMEESKA [HSP90AB1] | 5.68 ± 0.32 | 5.54 ± 0.39 |  | 
CLAHLGEKVSQELKEPLHKALQML [BCL2L13] | 2.26 ± 0.28 | 2.16 ± 0.26 |  | 
ERKQALYEYARRRFTERRAQEAD [AUP1] |  |  | 4.22 ± 0.15 | 4.25 ± 0.29
VLVILISIVIFCLETLPEFRDEKD [KCNA3] | 2.54 ± 0.81 | 2.25 ± 0.88 |  | 
KAPKKDVIKMLVNDNKVLRYLAVL [EFHC1] | 2.65 ± 0.49 | 2.44 ± 0.58 |  | 
LQAQVQYQQQHEQQKKDLEILHQQ [SASS6] | 4.73 ± 0.14 | 4.93 ± 0.19 |  | 
PIETLIRDMLLSGSSFNWPYMAIQ [NR2F2] | 3.34 ± 0.18 | 2.95 ± 0.62 |  | 
CHRRYSCAHCRAHLANHDDLISKS [YPEL3] | 2.44 ± 0.46 | 2.81 ± 0.4 |  | 
GIGDMAFEGDMGAAGGDGELGSPL [PSD2] | 5.37 ± 0.25 | 5.46 ± 0.16 |  | 
PATALGTASYPSDGCGADGLRSRV [NOL4L] | 4.39 ± 0.27 | 4.55 ± 0.26 |  | 
SLLQSAWMEILILGVVYRSLSFED [ESRRG] | 3.09 ± 0.26 | 3.07 ± 0.22 |  | 
SVETLDHDSVVEMIRKGGDQTSLL [PDZK1] | 4.44 ± 0.42 | 4.55 ± 0.28 |  | 
CHSHTVVQDYSYFFFLRMDENYNL [CCDC3] | 2.49 ± 0.68 | 2.4 ± 0.63 |  | 
HSSPVDLKIPQVRGMDLSWESRTG [LCOR] | 3.43 ± 0.33 | 3.65 ± 0.31 |  | 
DAAYRKALDLAREFLPQGPVAMRV [AUH] | 2.25 ± 0.64 | 2.19 ± 0.33 |  | 
LIGAAAFLGGVVRMTISLTVILIE [CLCN6] | 3.27 ± 0.53 | 2.75 ± 1.3 |  | 
KKRKVDGLSTEAEQPFIPVEVLVD [PRAME] | 3.8 ± 0.52 | 4.04 ± 0.27 |  | 
HMFVWGGYKSNQVRGLYDFYLPRE [KLHDC2] | 2.24 ± 0.26 | 2.19 ± 0.5 |  | 
FEEFLVMMVRQMKEDAKGKSEEEL [TNNC2] | 3.48 ± 0.37 | 3.28 ± 0.35 |  | 
SSREDSLEAGLPLQVRGYPEEKKE [CHGA] | 5.49 ± 0.21 | 5.5 ± 0.3 |  | 

Sequence | protein stability index [1] | protein stability index [2] | protein stability index (treatment: DMSO, c terminus: native) | protein stability index (treatment: MLN4924 1 uM, 8 h, c terminus: native)
DVEVPASVTGYSFASDGDSGTCSP [ADD1] | 5.16 ± 0.19 | 5.29 ± 0.11 |  | 
LCAIAGVLTIALPVPVIVSNFNYF [KCNA1] | 3.23 ± 0.18 | 3.04 ± 0.32 |  | 
AEYYRLHLEGYHGTAGDSMSYHSG [TNXB] | 3.09 ± 0.83 | 2.96 ± 0.43 |  | 
GQKLVVPGLLGSMALSNHYRSEDL [FBXO3] | 2.92 ± 0.21 | 3.17 ± 0.35 |  | 
TFPDLESEFQAALSRKVAELVHFL [MAGEA3] | 2.34 ± 0.37 | 2.45 ± 0.33 |  | 
ACGVILYILLVGYPPFWDEDQHKL [CAMK2B] | 3.05 ± 0.85 | 2.93 ± 0.38 |  | 
EMREQYEAMAEKNRRDVEAWFFSK [KRT15] | 3.85 ± 0.13 | 3.88 ± 0.39 |  | 
EPVAAGSGIPEVKCYLNGVKVPGI [CLCN6] | 3.19 ± 0.61 | 3.59 ± 0.34 |  | 
PNPSKVLQQLLVLQPEQQLNIYKT [CDS1] | 2.38 ± 0.33 | 2.44 ± 0.3 |  | 
DETHPYTVTSVSCCHGNTLLAVRS [NEK8] | 2.47 ± 0.12 | 2.67 ± 0.076 |  | 
NELDSGFRLLNLKNDSLRKRYDGL [TSN] | 3.21 ± 0.28 | 3.43 ± 0.36 |  | 
VEMDIYTALKKWMFLQLVPSWNGS [GMCL1] | 2.65 ± 0.092 | 2.66 ± 0.65 |  | 
DIVLMAQALEKIFLQKVAQMPQEE [BRD3] | 2.36 ± 1.6 | 3 ± 1 |  | 
AELLIFSVPIVYEKYKTQIDHYVG [RTN3] | 2.65 ± 0.77 | 2.61 ± 0.56 |  | 
DFLIHPPERSDLTLYLIVALATVS [PCDHGC5] | 2.75 ± 0.41 | 2.44 ± 0.25 |  | 
VLLMKDRETNKSRGFAFVTFESPA [RBMX] | 2.06 ± 0.47 | 2.2 ± 0.41 |  | 
EMAEQLMTLAYDNGINLFDTAEVY [KCNAB2] | 2.3 ± 0.44 | 2.44 ± 0.29 |  | 
FTKANFWYQPSFHGVDLSALRGAA [CARM1] | 2.38 ± 0.83 | 1.92 ± 0.3 |  | 
VAGEFSEPVTLETPAFMFRLDAST [FSD1] | 3.1 ± 0.27 | 3.16 ± 0.19 |  | 
GISVPSGLFVPSLLCGAAFGRLVA [CLCN6] | 2.62 ± 1.2 | 2.51 ± 0.97 |  | 
HQGHSDQHHHHHHHHHGRDFLLRA [RHOBTB2] | 3.45 ± 0.11 | 3.65 ± 0.24 |  | 
AGGYVDVVKVLLESGASIEDHNEN [ANKRD17] | 3.08 ± 0.24 | 3.12 ± 0.36 |  | 
